Experimental data from paper PMC7954794, “Protein context shapes the specificity of SH3 domain-mediated interactions in vivo” (Nature Communications, 2021).
Values belong to the binder of their own block, whether it stands above or below them. No end group written: not given here.

Biological target: T1, NCK2 full-length recombinant protein (mouse, WT, tag-free) (mouse, UniProt O55033 1-380)
T1 construct: NCK2, mouse, full-length recombinant; also called WT NCK2; NCK2 1|2|3; source: E. coli BL21 (DE3), purified (GSTrap, TEV cleavage, HisTrap)
Experiment: fluorescence polarisation; 40 nM fluorescein isothiocyanate-conjugated peptide, NCK2 titrated (0-150 μM for CD3ε, 0-175 μM for PAK1); 17 mM Tris-HCl pH 8, 100 mM NaCl; one-site total binding model; triplicates
Details: both partners purified

T1 sequence (O55033 whole entry): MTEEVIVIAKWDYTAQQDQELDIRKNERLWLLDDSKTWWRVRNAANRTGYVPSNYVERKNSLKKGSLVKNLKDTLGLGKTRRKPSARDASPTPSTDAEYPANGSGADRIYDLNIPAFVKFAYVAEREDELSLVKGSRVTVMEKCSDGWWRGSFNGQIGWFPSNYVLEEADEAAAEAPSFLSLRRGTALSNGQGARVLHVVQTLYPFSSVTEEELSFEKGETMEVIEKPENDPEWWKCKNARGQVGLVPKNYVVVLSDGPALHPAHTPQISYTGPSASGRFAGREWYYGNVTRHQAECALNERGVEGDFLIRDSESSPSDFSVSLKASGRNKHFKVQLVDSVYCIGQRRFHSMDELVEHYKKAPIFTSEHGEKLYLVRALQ

- binding result: binds
B1: Cd3ε peptide (RGQNKERPPPVPNPDY), fluorescein isothiocyanate-conjugated (peptide)
peptide: RGQNKERPPPVPNPDY
modifications: also: fluorescein isothiocyanate-conjugated (position not given here)
notes: peptide of CD3 epsilon, ligand of NCK2 SH3-1; also called CD3Ɛ

- binding result: binds
B2: PAK1 peptide (DIQDKPPAPPMRNTST), fluorescein isothiocyanate-conjugated (peptide)
peptide: DIQDKPPAPPMRNTST
modifications: also: fluorescein isothiocyanate-conjugated (position not given here)
notes: peptide of PAK1, ligand of NCK2 SH3-2; also called PAK1 target peptide
